Measured values as given in article PMC9823235 (The Journal of Biological Chemistry, 2022).

Molecular target: the molecule itself
Test: cryo-EM structure

B1: B subunit of Stx2a ([change]), pentameric (natural protein)
chain: ADCAKGKIEFSKYNEDDTFTVKVDGKEYWTSRWNLQPLLQSAQLTGMTVTIKSSTCESGSGFAEVQFNND
How did the “stoichiometry N” value turn out when B1 was run?
Its value is 5.
